Laboratory results as given in patent publication US11766479 (ZHEJIANG SHIMAI PHARMACEUTICAL, dated 2023).

T1: recombinant human ENPP3 (full-length extracellular domain) (human, UniProt O14638 31-875)
T1 construct: extracellular domain; Bought protein; also called Human ENPP3 (CD203c) protein
T1 sequence (looked up): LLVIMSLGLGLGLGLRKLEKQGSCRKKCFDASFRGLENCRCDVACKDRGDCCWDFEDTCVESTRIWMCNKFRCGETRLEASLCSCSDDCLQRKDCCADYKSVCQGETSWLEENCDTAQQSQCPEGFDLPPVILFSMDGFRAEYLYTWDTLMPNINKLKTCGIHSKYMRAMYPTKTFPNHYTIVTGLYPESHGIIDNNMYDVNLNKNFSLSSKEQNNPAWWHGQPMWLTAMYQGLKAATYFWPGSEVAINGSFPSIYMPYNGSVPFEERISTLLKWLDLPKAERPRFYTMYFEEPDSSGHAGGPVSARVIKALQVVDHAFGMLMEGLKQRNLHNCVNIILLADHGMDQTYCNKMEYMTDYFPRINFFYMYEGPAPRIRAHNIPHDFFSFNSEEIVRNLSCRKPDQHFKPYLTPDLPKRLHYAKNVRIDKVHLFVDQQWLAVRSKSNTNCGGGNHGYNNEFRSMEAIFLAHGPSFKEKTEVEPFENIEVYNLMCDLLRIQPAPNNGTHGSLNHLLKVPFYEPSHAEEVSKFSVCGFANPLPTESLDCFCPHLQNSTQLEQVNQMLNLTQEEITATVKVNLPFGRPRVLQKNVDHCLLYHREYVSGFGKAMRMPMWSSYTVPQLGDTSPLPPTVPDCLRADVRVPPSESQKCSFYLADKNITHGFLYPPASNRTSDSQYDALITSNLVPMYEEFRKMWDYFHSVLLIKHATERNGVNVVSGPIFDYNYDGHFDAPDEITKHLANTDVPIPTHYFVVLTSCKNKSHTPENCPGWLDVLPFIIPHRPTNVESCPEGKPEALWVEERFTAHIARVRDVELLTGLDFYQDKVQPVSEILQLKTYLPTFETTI

B1: hexahistidine-tagged 3A10 Fab (Fab, V domains shown)
VH: EVQLVESGGGLVKPGGSLRLSCAASGFTFSNAWMSWVRQAPGKGLEWVSYISSSGSTIYYADSVKGRFTISRDNAKNSLYLQMNSLRAEDTAVYYCARLAGPYYFDYWGQGTLVTVSS
VL: QSVVTQPPSVSAAPGQKVTISCSGSSSNIGNNYVSWYQQLPGTAPKLLIYDNNKRPSGIPDRFSGSKSGTSATLGIDGLRTGDEAEYFCGVWDSSLRAELFAGGTKVTVL
notes: Human Fab from a phage library with a lambda light chain, made in E. coli HB2151; also called Fab 3A10; anti-ENPP3 Fab 3A10
B2: anti-ENPP3 3A10 mAb (antibody, human IgG1, lambda, V domains shown)
VH: B1 VH
VL: QSVVTQPPSVSAAPGQKVTISCSGSSSNIGNNYVSWYQQLPGTAPKLLIYDNNKRPSGIPDRFSGSKSGTSATLGIDGLRTGDEAEYFCGVWDSSLRAELFAGGTKVTVLS
notes: Intact human IgG1 with wild type Fc and a lambda light chain, expressed in 293FS cells; also called anti-ENPP3 monoclonal antibody

Key:
[1] = biological target: T1, recombinant human ENPP3 (full-length …); assay: ELISA, recombinant human ENPP3 coated at 200 ng per well, detection with HRP anti-FLAG
Description: The hexahistidine (HHHHHH, SEQ ID NO: 35)-tagged 3A10 Fab was expressed in *E. coli* strain HB2151 and purified from the soluble fraction of periplasm by using the Ni-NTA resin. Then ELISA was performed by using standard protocols to measure binding affinity to recombinant human ENPP3 (full-length extracellular domain). Briefly, the recombinant human ENPP3 (ACROBiosystems) was coated on Corning EIA/RIA high-binding 96-well plates (Corning Inc.) at 200 ng per well overnight at 4° C. and blocked with 3% nonfat milk in PBS (pH7.4). Five-fold serially diluted antibodies were added accordingly and then incubated at room temperature for 2 h. The plates were washed with PBS containing 0.05% TWEEN® 20. Bound antibodies were detected by HRP-conjugated anti-FLAG tag antibody (Sino Biological). The assay was developed at room temperature with TMB substrate (Solarbio) and OD value was measured at 450 nm with a microplate reader.

[2] = biological target: T1, recombinant human ENPP3 (full-length …); assay: ELISA, recombinant human ENPP3 coated at 100 ng per well, detection with anti-human IgG Fc-peroxidase
Description: ELISA was performed according to standard protocols, to determine binding affinity of anti-ENPP3 3A10 mAb to recombinant human ENPP3 (AcroBiosystems). Briefly, recombinant human ENPP3 was coated on Corning EIA/RIA high-binding 96-well plates (Corning Inc.) at 100 ng per well overnight at 4° C. and blocked with 3% nonfat milk in PBS (pH7.4). Five-fold serially diluted antibodies were added and incubated at 37° C. for 1 h. The plates were washed with PBS containing 0.05% TWEEN® 20. Bound antibodies were detected by anti-human IgG (Fc-specific)-peroxidase antibody (Sigma). The assay was developed at room temperature with TMB substrate (Solarbio) and monitored at 450 nm with a microplate reader. The half-maximal binding ($EC50$) was calculated by fitting the data to the Langmuir adsorption isotherm.

| Binder | EC50 [1] [nM] | EC50 [2] [nM] |
| --- | --- | --- |
| B1 | 9.17 | – |
| B2 | – | 0.107 |
